Measurements as given in publication PMC5380474 (Molecular microbiology, 2017).
Where two headings read alike, the source gives them in different places.

Assays:
Assay in all cases: cross-linking
cross-linking [1] = molecular target: the molecule itself
cross-linking [2] = molecular target: the molecule itself; remark: listed apart in the source
cross-linking [3] = molecular target: the molecule itself; remark: listed apart in the source

B1: FLAG-tagged FlhA D170C/R185C (natural protein)
chain: MANLVAMLRLPSNLKSTQWQILAGPILILLILSMMVLPLPAFILDLLFTFNIALSIMVLLVAMFTQRTLDFAAFPTILLFTTLLRLALNVASTRIILMEGHTGAAAAGKVVEAFGHFLVGGNFAIGIVVFIILVIINFMVITKGAGRIAEVGARFVLDGMPGKQMAIDACLNAGLIGEDEAKKRCSEVTQEADFYGSMDGASKFVRGDAIAGILIMVINVVGGLLVGVLQHGMSIGSAAESYTLLTIGDGLVAQIPALVISTAAGVIVTRVSTDQDVGEQMVGQLFSNPRVMLLAAAVLGLLGMVPGMPNLVFLLFTAALLGLAWWLRGREEKAPEEPQPVKMPENNSVVEATWNDVQLEDSLGMEVGYRLIPMVDFQQDGELLGRIRSIRKKFAQDMGFLPPVVHIRDNMDLQPARYRILMKGVEIGSGDAYPGRWLAINPGTAAGTLPGEKTVDPAFGLDAIWIESALKEQAQIQGFTVVEASTVVATHLNHLIGQFSAELFGRQEAQQLLDRVSQEMPKLTEDLVPGVVTLTTLHKVLQNLLAEKVPIRDMRTILETLAEHAPLQSDPHELTAVVRVALGRAITQQWFPGNEEVQVIGLDTALERLLLQALQGGGGLEPGLADRLLAQTQEALSRQEMLGAPPVLLVNHALRPLLSRFLRRSLPQLVVLSNLELSDNRHIRMTATIGGK
Question: How did the “stoichiometry N” value (cross-linking [1]) turn out when B1 was run?
Answer: The value was 7.

Question: And the “stoichiometry N” value (cross-linking [2])?
Answer: The value was 5.

Question: What about the “stoichiometry N” value (cross-linking [3]) of the same protein?
Answer: The value was 9.
